Data: paper PMC11662938, “Single-molecule visualization of sequence-specific RNA binding by a designer PPR protein”

Key:
dPPR10-C2 [1] = molecular target: T1, dPPR10-C2 (synthetic construct (designed consensus …, Q96C;Q376C)); experiment: ensemble FRET; SPR: 30 mM Tris pH 7.6, 40 mM KCl, 5 mM MgCl2, 0.5 mM DTT, 0.25 mM EDTA, 0.01% P20, 20 C; ensemble FRET and MST: 100 mM Tris-HCl pH 8.0, 100 mM KCl; smFRET buffer not in material; details: protein: recombinant; tags: N-terminal Avi-tag, biotinylated; Cy3/AF647 maleimide on Cys for FRET
T1 chain: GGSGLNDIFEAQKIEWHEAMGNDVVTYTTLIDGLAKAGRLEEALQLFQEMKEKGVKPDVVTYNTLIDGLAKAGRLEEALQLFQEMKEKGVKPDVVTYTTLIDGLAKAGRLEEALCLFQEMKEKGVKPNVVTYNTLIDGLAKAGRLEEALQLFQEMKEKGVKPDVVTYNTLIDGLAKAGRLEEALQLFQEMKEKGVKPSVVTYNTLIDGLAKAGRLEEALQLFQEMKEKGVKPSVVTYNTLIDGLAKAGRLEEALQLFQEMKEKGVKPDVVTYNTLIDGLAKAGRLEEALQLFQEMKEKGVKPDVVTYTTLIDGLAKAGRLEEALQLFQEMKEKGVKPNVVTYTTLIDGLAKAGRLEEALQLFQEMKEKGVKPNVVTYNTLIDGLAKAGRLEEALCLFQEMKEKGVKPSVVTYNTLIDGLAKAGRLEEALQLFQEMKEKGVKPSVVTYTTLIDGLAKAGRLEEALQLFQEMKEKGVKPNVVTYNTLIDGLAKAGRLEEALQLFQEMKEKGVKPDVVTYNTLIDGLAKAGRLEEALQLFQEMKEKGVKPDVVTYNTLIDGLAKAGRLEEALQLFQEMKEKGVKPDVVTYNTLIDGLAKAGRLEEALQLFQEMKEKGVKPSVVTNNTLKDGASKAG

dPPR10 [2] = molecular target: T2, dPPR10 (synthetic construct (designed consensus …)); experiment: MST; Results value; Fig S4D legend gives 9.7 nM; SPR: 30 mM Tris pH 7.6, 40 mM KCl, 5 mM MgCl2, 0.5 mM DTT, 0.25 mM EDTA, 0.01% P20, 20 C; ensemble FRET and MST: 100 mM Tris-HCl pH 8.0, 100 mM KCl; smFRET buffer not in material; details: protein: recombinant; tags: Trx-His6-TEV (pETM20) cleaved; GAM remnant; label: 5' 6-FAM (FITC in Results)
T2 chain: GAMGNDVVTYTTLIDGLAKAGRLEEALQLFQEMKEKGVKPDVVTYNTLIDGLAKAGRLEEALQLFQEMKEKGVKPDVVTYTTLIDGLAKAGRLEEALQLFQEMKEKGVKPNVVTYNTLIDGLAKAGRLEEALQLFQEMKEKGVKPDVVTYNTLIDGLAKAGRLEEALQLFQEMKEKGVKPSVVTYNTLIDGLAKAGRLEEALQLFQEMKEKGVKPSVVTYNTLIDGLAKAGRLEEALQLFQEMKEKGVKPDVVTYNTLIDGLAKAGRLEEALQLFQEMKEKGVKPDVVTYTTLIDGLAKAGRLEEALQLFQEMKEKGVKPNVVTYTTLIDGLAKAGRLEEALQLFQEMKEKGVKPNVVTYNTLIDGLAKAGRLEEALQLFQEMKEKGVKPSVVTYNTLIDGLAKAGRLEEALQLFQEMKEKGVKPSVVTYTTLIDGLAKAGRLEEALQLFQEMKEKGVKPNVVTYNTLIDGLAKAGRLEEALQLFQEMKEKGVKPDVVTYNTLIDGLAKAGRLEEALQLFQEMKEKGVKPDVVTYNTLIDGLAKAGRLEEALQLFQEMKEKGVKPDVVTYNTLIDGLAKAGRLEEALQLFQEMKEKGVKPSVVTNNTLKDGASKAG

dPPR10 [3] = molecular target: T2, dPPR10; experiment: MST; Fig S4D legend value, conflicts with 4 nM in text; legend says labelled dPPR10; SPR: 30 mM Tris pH 7.6, 40 mM KCl, 5 mM MgCl2, 0.5 mM DTT, 0.25 mM EDTA, 0.01% P20, 20 C; ensemble FRET and MST: 100 mM Tris-HCl pH 8.0, 100 mM KCl; smFRET buffer not in material; details: protein: recombinant; tags: Trx-His6-TEV (pETM20) cleaved; GAM remnant; label: 5' 6-FAM (FITC in Results)
dPPR10-C2 [4] = molecular target: T1, dPPR10-C2; experiment: competition; 100-fold excess over RNAcognate; smFRET; SPR: 30 mM Tris pH 7.6, 40 mM KCl, 5 mM MgCl2, 0.5 mM DTT, 0.25 mM EDTA, 0.01% P20, 20 C; ensemble FRET and MST: 100 mM Tris-HCl pH 8.0, 100 mM KCl; smFRET buffer not in material; details: protein: recombinant; tags: N-terminal Avi-tag, biotinylated; Cy3/AF647 maleimide on Cys for FRET
dPPR10-C2 [5] = molecular target: T1, dPPR10-C2; experiment: smFRET; 1 uM RNA; rare transitions; SPR: 30 mM Tris pH 7.6, 40 mM KCl, 5 mM MgCl2, 0.5 mM DTT, 0.25 mM EDTA, 0.01% P20, 20 C; ensemble FRET and MST: 100 mM Tris-HCl pH 8.0, 100 mM KCl; smFRET buffer not in material; details: protein: recombinant; tags: N-terminal Avi-tag, biotinylated; Cy3/AF647 maleimide on Cys for FRET
dPPR10-C2 [6] = molecular target: T1, dPPR10-C2; experiment: smFRET; 1 uM RNA; SPR: 30 mM Tris pH 7.6, 40 mM KCl, 5 mM MgCl2, 0.5 mM DTT, 0.25 mM EDTA, 0.01% P20, 20 C; ensemble FRET and MST: 100 mM Tris-HCl pH 8.0, 100 mM KCl; smFRET buffer not in material; details: protein: recombinant; tags: N-terminal Avi-tag, biotinylated; Cy3/AF647 maleimide on Cys for FRET
dPPR10-C2 [7] = molecular target: T1, dPPR10-C2; experiment: smFRET; 1 uM RNA; mean binding time 41.3 s vs 10.6 s cognate; SPR: 30 mM Tris pH 7.6, 40 mM KCl, 5 mM MgCl2, 0.5 mM DTT, 0.25 mM EDTA, 0.01% P20, 20 C; ensemble FRET and MST: 100 mM Tris-HCl pH 8.0, 100 mM KCl; smFRET buffer not in material; details: protein: recombinant; tags: N-terminal Avi-tag, biotinylated; Cy3/AF647 maleimide on Cys for FRET; 5' extension, predicted secondary structure
dPPR10-C2 [8] = molecular target: T1, dPPR10-C2; experiment: smFRET; 1 uM RNA; mean binding time 43.4 s; SPR: 30 mM Tris pH 7.6, 40 mM KCl, 5 mM MgCl2, 0.5 mM DTT, 0.25 mM EDTA, 0.01% P20, 20 C; ensemble FRET and MST: 100 mM Tris-HCl pH 8.0, 100 mM KCl; smFRET buffer not in material; details: protein: recombinant; tags: N-terminal Avi-tag, biotinylated; Cy3/AF647 maleimide on Cys for FRET; 3' extension, predicted secondary structure
dPPR10 [9] = molecular target: T2, dPPR10; experiment: MST; SPR: 30 mM Tris pH 7.6, 40 mM KCl, 5 mM MgCl2, 0.5 mM DTT, 0.25 mM EDTA, 0.01% P20, 20 C; ensemble FRET and MST: 100 mM Tris-HCl pH 8.0, 100 mM KCl; smFRET buffer not in material; details: protein: recombinant; tags: Trx-His6-TEV (pETM20) cleaved; GAM remnant; label: 5' 6-FAM
dPPR10-C2 [10] = molecular target: T1, dPPR10-C2; experiment: smFRET; 1 uM RNA; mean binding time 30.0 s; SPR: 30 mM Tris pH 7.6, 40 mM KCl, 5 mM MgCl2, 0.5 mM DTT, 0.25 mM EDTA, 0.01% P20, 20 C; ensemble FRET and MST: 100 mM Tris-HCl pH 8.0, 100 mM KCl; smFRET buffer not in material; details: protein: recombinant; tags: N-terminal Avi-tag, biotinylated; Cy3/AF647 maleimide on Cys for FRET; no predicted secondary structure

## UGUAUCCUUAACCAUUUCU (ssRNA) [RNAcognate]
dPPR10-C2 [1]
  Kd: 1.2 ± 0.2 nM

## UGUAUCCUUAACCAUUUCU (ssRNA) [RNAcognate 5'-FAM]
dPPR10 [2]
  Kd: 4 nM
dPPR10 [3]
  Kd: 9.7 ± 1.8 nM

## UCACAGGAACCGGCAAAGU (ssRNA) [RNAanti-cognate]
dPPR10-C2 [4]
  binding result: no binding

## UGUAUCCUAUACCAUUUCU (ssRNA) [RNA U9A,A10U]
dPPR10-C2 [5]
  binding result: no binding

## CCAUUUCU (ssRNA) [RNA12-19]
dPPR10-C2 [6]
  binding result: no binding

## UGUAUCCUUA (ssRNA) [RNA1-10]
dPPR10-C2 [6]
  binding result: no binding

## UGUAUCCUUAAC (ssRNA) [RNA1-12]
dPPR10-C2 [6]
  binding result: binds

## CACAGGAACCGGCAAAGUGUAUCCUUAACCAUUUCU (ssRNA) [RNA5'-OH]
dPPR10-C2 [7]
  binding result: binds

## UGUAUCCUUAACCAUUUCUCACAGGAACCGGCAAAG (ssRNA) [RNA3'-OH]
dPPR10-C2 [8]
  binding result: binds

## UCACAGGAACCGGCAAAGU (ssRNA) [RNAanti-cognate 5'-FAM]
dPPR10 [9]
  binding result: no binding

B1: RNAdual-OH (delta2) (ssRNA)
RNA: CAUUCCAACCCCCAAAGUGUAUCCUUAACCAUUUCUCUCACCAACCCCCAAAG
dPPR10-C2 [10]
  binding result: binds
